The text below walks through data of publication PMC3713617.

Data set [1] concerns the target Helicobacter pylori ferric uptake regulator, wildtype (HpFurWT) (H. pylori) (UniProt O25671). In words: cross-linking.
Data set [2] has as its target T1, HpFurH134Y (Helicobacter pylori, UniProt O25671 1-150, H134Y).
T1 sequence: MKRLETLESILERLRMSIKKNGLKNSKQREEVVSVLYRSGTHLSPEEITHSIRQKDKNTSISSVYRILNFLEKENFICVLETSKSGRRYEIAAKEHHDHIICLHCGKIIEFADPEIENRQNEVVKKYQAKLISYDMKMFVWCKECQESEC
The data set can be described thus: fluorescence anisotropy.

Data set [3] concerns the target T2, HpFurWT (Helicobacter pylori, UniProt O25671 1-150).
T2 sequence: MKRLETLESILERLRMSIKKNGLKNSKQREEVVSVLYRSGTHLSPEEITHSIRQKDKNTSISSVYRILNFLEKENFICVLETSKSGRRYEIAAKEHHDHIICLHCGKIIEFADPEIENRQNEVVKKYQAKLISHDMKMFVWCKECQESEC
In words: fluorescence anisotropy.

In data set [4] the target is T3, HpFurA92T (Helicobacter pylori, UniProt O25671 1-150, A92T).
T3 sequence: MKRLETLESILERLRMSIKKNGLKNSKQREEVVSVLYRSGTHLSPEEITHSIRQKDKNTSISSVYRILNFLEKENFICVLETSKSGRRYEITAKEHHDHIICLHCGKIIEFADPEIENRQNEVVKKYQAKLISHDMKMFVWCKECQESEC
In words: fluorescence anisotropy. In general terms: In fluorescence polarisation assays a small probe gives low polarisation when free and higher when bound to something large.

In data set [5] the target is T4, HpFurE5A (Helicobacter pylori, UniProt O25671 1-150, E5A).
T4 sequence: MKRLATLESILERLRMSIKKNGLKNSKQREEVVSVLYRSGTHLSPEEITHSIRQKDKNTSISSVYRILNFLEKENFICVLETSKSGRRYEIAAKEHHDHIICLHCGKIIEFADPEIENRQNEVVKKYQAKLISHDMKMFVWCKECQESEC
In words: fluorescence anisotropy.

The target of data set [6] is T3, HpFurA92T. The data set can be described thus: competition.
Data set [7] has as its target T1, HpFurH134Y. In words: fluorescence anisotropy. This is another data set of the same source.
The target of data set [8] is T2, HpFurWT. The data set can be described thus: fluorescence anisotropy. This is another data set of the same source.
Data set [9] deals with T3, HpFurA92T. In words: fluorescence anisotropy. The source holds these as a separate data set.
In data set [10] the target is T4, HpFurE5A. The data set can be described thus: competition.

Read-outs that look alike come from different tables or passages of the source.

A word on the stoichiometry N: it is the number of molecules, sites or subunits per partner or assembly. The molecule “Helicobacter pylori ferric uptake regulator, wildtype (HpFurWT) (from UniProt O25671 1-150) (natural protein)” registered a stoichiometry N in data set [1] of 2.

B1: amiE Fur box duplex (dsDNA)
DNA 1: TGCCCCAATAATCATAATGATTAA
DNA 2: TTAATCATTATGATTATTGGGGCA
The Kd is the free concentration of one partner at which half of the binding sites on the other are occupied at equilibrium, for simple one-to-one binding. On to B1, for which the Kd with HpFurH134Y [2] amounted to 6 ± 1 nM; in the data set with HpFurWT [3], 16 ± 2 nM; with HpFurA92T [4], 15 ± 2 nM; with HpFurE5A [5] it was 2 ± 1 nM.

B2: pfr scrambled (GT repeats) (dsDNA)
DNA 1: TTCATTAGTGTGTATGCTAT
DNA 2: ATAGCATACACACTAATGAA
Turning to B2, in the data set with HpFurA92T [6], the binding result is reported as “no binding”.

B3: pfr apo-Fur binding site duplex (dsDNA)
DNA 1: TTCATTATCATTTATGCTAT
DNA 2: ATAGCATAAATGATAATGAA
With B3, the Kd with HpFurH134Y [7] came out at 8 ± 1 nM; in the data set with HpFurWT [8], 43 ± 2 nM; with HpFurA92T [9] it was 13 ± 1 nM.

B4: amiE Fur box scrambled (GT repeats) (dsDNA)
DNA 1: TGCCCCGTGTGTGTGTGTGTATTAA
DNA 2: TTAATACACACACACACACGGGGCA
In the case of B4, in the data set with HpFurE5A [10], the binding result is “no binding”.
